Measured values taken from publication PMC5750225, “Inhibition of Poly(A)-binding protein with a synthetic RNA mimic reduces pain sensitization in mice”.

B1: Poly(A) SPOT-ON (XNA)
strand: AAAAAAAAAAAA
modifications: 2'-O-methyl throughout; phosphorothioate at the 5' and 3' terminal linkages (A*AAAAAAAAAA*A)

Target: PABP (PABPC1) (Homo sapiens, UniProt P11940 1-383)
Test: fluorescence polarization/anisotropy; text gives nM; Fig. 2d legend prints μM; FP: 50 mM HEPES, 5 mM EDTA, 250 mM KCl, 10 mM DTT, 0.5 mg/mL BSA, 0.05% Tween-20, 0.1 mg/mL yeast RNA, 0.5 nM Cy3-RNA (pH and temperature not stated). EMSA: 10
Details: protein: recombinant

Chain of PABP (PABPC1) (P11940 1-383): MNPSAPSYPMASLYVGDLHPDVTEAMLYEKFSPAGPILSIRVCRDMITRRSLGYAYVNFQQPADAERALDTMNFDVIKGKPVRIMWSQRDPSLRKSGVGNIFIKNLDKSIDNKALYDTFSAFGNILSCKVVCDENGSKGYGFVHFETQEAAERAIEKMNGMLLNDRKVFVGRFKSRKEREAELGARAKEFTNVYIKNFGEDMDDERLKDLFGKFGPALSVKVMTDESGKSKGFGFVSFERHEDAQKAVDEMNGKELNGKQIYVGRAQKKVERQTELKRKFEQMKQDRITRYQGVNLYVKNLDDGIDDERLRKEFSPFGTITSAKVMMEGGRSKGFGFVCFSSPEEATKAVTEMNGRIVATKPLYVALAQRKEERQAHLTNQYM

Binder	Kd [nM]
B1	301 ± 41
AAAAAAAAAAAA (ssRNA) [unmodified 12-base Poly(A) RNA]	261 ± 54
